Consider five molecules from patent US20220403392 (published 2022).

The labels stand for the following.
B1: RA 5' + 5' fiber (mixed)
DNA 1: GGTTGGTGTGGTTGGTGGTTGGTGTGGTTGGTTTTCCCTTTAGGGAATGACCCTGAAGTTCATCTGCACCACCGAGGGAAATCCCTT
DNA 2: GGTTGGTGTGGTTGGTGGTTGGTGTGGTTGGTTTTTCCCTAAAGGGATGACCCTGAAGTTCATCTGCACCACCGAAGGGATTTCCCT
DNA 3: CGGTGGTGCAGATGAACTTCAGGGTCA
B2: RA 5' + 3' fiber (mixed)
DNA 1: GGTTGGTGTGGTTGGTGGTTGGTGTGGTTGGTTTTCCCTTTAGGGAATGACCCTGAAGTTCATCTGCACCACCGAGGGAAATCCCTT
DNA 2: TTCCCTAAAGGGATGACCCTGAAGTTCATCTGCACCACCGAAGGGATTTCCCTTTTGGTTGGTGTGGTTGGTGGTTGGTGTGGTTGG
DNA 3: CGGTGGTGCAGATGAACTTCAGGGTCA
B3: RA 5'3' + 5'3' fiber (mixed)
DNA 1: GGTTGGTGTGGTTGGTGGTTGGTGTGGTTGGTTTTCCCTTTAGGGAATGACCCTGAAGTTCATCTGCACCACCGAGGGAAATCCCTTTTTGGTTGGTGTGGTTGGTGGTTGGTGTGGTTGG
DNA 2: GGTTGGTGTGGTTGGTGGTTGGTGTGGTTGGTTTTTCCCTAAAGGGATGACCCTGAAGTTCATCTGCACCACCGAAGGGATTTCCCTTTTGGTTGGTGTGGTTGGTGGTTGGTGTGGTTGG
DNA 3: CGGTGGTGCAGATGAACTTCAGGGTCA
B4: NU 3' + 5' fiber (mixed)
DNA 1: TCCCTTTAGGGAATGACCCTGAAGTTCATCTGCACCACCGAGGGAAATCCCTTTTTCGCCTAGGTTGGGTAGGGTGGTGGCG
DNA 2: CGCCTAGGTTGGGTAGGGTGGTGGCGTTTTTCCCTAAAGGGATGACCCTGAAGTTCATCTGCACCACCGAAGGGATTTCCCT
DNA 3: CGGTGGTGCAGATGAACTTCAGGGTCA
B5: RA 3' + 3' fiber (mixed)
DNA 1: TCCCTTTAGGGAATGACCCTGAAGTTCATCTGCACCACCGAGGGAAATCCCTTTTTGGTTGGTGTGGTTGGTGGTTGGTGTGGTTGG
DNA 2: TTCCCTAAAGGGATGACCCTGAAGTTCATCTGCACCACCGAAGGGATTTCCCTTTTGGTTGGTGTGGTTGGTGGTTGGTGTGGTTGG
DNA 3: CGGTGGTGCAGATGAACTTCAGGGTCA

In the data set the target is thrombin (Homo sapiens, UniProt P00734;P00734 P00734:328-363,P00734:364-622). Nature of the data set: inhibition; TT, plasma alone 16.3 s; about 0.5 uM in human plasma, 37 C.
Molecule B1 displayed an activity of over 60 s.
Under B2 stands over 60 s; under B3, over 60 s; under B4, over 60 s.
Under B5 stands over 60 s.
